{"source": "paper PMC12001967", "about": "“Different RNA recognition by ProQ and FinO depends on the sequence surrounding intrinsic terminator hairpins”", "key": {"ProQ [1]": {"target": "T1, ProQ (Escherichia coli, UniProt P45577 1-232)", "T1 sequence": "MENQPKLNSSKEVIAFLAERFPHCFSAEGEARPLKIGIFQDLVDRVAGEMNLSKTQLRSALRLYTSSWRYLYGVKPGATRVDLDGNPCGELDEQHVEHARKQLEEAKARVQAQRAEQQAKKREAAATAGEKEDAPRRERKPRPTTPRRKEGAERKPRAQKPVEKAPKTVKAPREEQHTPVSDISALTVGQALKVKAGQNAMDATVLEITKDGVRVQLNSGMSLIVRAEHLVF", "test": "EMSA; max bound 67%; 150 mM NaCl, 25 mM Tris-HCl pH 7.5, 5% glycerol, 1 mM MgCl2, 1 nM 32P-RNA, 30 min at room temperature; native 6% PAGE in 0.5x TBE at 4 C", "settings": "protein: recombinant; tags: pET-15b construct; label: 32P; terminator hairpin"}, "FinO [2]": {"target": "T2, FinO (F-like plasmid (Escherichia coli), UniProt P29367 1-186)", "T2 sequence": "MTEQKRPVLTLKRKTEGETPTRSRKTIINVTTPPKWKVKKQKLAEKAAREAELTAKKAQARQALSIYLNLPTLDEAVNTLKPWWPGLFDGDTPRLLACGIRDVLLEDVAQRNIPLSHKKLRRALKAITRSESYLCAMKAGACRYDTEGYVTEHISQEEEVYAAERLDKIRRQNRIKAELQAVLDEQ", "test": "EMSA; max bound 55%; 150 mM NaCl, 25 mM Tris-HCl pH 7.5, 5% glycerol, 1 mM MgCl2, 1 nM 32P-RNA, 30 min at room temperature; native 6% PAGE in 0.5x TBE at 4 C", "settings": "protein: recombinant; tags: His6-TEV site (ENLYFQ/S) N-terminal in the expression construct; label: 32P; terminator hairpin"}, "FinO [3]": {"target": "T2, FinO", "test": "EMSA; 25 mM Tris-HCl pH 7.5, 150 mM NaCl, 5% glycerol, 1 mM MgCl2, 1 nM 32P-RNA, 30 min at room temperature; native 6% PAGE in 0.5x TBE at 4 C", "settings": "protein: recombinant, tags: His6-TEV site (ENLYFQ/S) N-terminal in the expression construct, label: 32P"}, "ProQ [4]": {"target": "T1, ProQ", "test": "EMSA; 25 mM Tris-HCl pH 7.5, 150 mM NaCl, 5% glycerol, 1 mM MgCl2, 1 nM 32P-RNA, 30 min at room temperature; native 6% PAGE in 0.5x TBE at 4 C", "settings": "protein: recombinant, tags: pET-15b construct, label: 32P"}, "[5]": {"target": "T3, ProQNTD (FinO domain of ProQ) (Escherichia coli, UniProt P45577 1-130)", "T3 sequence": "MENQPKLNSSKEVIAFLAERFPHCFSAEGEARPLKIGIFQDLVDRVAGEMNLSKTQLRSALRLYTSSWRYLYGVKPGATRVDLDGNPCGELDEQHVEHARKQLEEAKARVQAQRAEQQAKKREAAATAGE", "test": "EMSA; 25 mM Tris-HCl pH 7.5, 150 mM NaCl, 5% glycerol, 1 mM MgCl2, 1 nM 32P-RNA, 30 min at room temperature; native 6% PAGE in 0.5x TBE at 4 C", "settings": "protein: recombinant, tags: pET-15b construct, label: 32P"}, "ProQ [6]": {"target": "T1, ProQ", "test": "EMSA; max bound 85%; 150 mM NaCl, 25 mM Tris-HCl pH 7.5, 5% glycerol, 1 mM MgCl2, 1 nM 32P-RNA, 30 min at room temperature; native 6% PAGE in 0.5x TBE at 4 C", "settings": "protein: recombinant; tags: pET-15b construct; label: 32P; terminator hairpin"}, "FinO [7]": {"target": "T2, FinO", "test": "EMSA; max bound 57%; 150 mM NaCl, 25 mM Tris-HCl pH 7.5, 5% glycerol, 1 mM MgCl2, 1 nM 32P-RNA, 30 min at room temperature; native 6% PAGE in 0.5x TBE at 4 C", "settings": "protein: recombinant; tags: His6-TEV site (ENLYFQ/S) N-terminal in the expression construct; label: 32P; terminator hairpin"}, "[8]": {"settings": "terminator hairpin, A-G then C-A mismatch below, GAU4 tail"}, "[9]": {"settings": "terminator hairpin, 5' A4 paired with first four U of U8 tail"}}, "data": [{"binder": "malM-RepX (structured_RNA) RNA: GCUUUAUCAGCAGUGUAAAAGGCAAGGGGUAAUUACGCCCCACAGUGCUGAUUUUGCAACAUUAGGUGCGUCUCCUGGCGCACCGCUCU", "values": [{"measurement": "Kd", "setting": "ProQ [1]", "result": "61 ± 29", "unit": "nM"}, {"measurement": "Kd", "setting": "FinO [2]", "result": "180 ± 93", "unit": "nM"}, {"measurement": "Kd", "setting": "FinO [3]; terminator hairpin", "result": "180 ± 93", "unit": "nM"}, {"measurement": "Kd", "setting": "ProQ [4]; terminator hairpin", "result": "61 ± 29", "unit": "nM"}]}, {"binder": "RepX (structured_RNA) RNA: GCAUUGAUUGCCUCCUUUGCAGGCAGUUGGUGGUUAGGCGCUGGCGGGGUCACUACCCCCGCCCUGCGCCGCUCU", "values": [{"measurement": "Kd", "setting": "FinO [3]; terminator hairpin, A-G mismatch below", "result": "61 ± 23", "unit": "nM"}]}, {"binder": "FinP (structured_RNA) RNA: GGAUACAUAGGAACCUCCUCACAAAGGAUUCUAUGGACAGUCGAUGCAGGGAGUUCACGUCUCCCUGCAUCGGCGAUUUU", "values": [{"measurement": "Kd", "setting": "FinO [3]; [8]", "result": "110 ± 16", "unit": "nM"}, {"measurement": "Kd", "setting": "ProQ [4]; [8]", "result": "79 ± 18", "unit": "nM"}, {"measurement": "Kd", "setting": "[5]; [8]", "result": "19 ± 6", "unit": "nM"}]}, {"binder": "FinP A39U;G75U;A76U (structured_RNA) RNA: GGAUACAUAGGAACCUCCUCACAAAGGAUUCUAUGGACUGUCGAUGCAGGGAGUUCACGUCUCCCUGCAUCGGCUUUUUU", "values": [{"measurement": "Kd", "setting": "FinO [3]", "result": "170 ± 45", "unit": "nM"}, {"measurement": "Kd", "setting": "ProQ [4]", "result": "37 ± 5.4", "unit": "nM"}, {"measurement": "Kd", "setting": "[5]", "result": "9.4 ± 4.5", "unit": "nM"}]}, {"binder": "FinP A39U;G75U (structured_RNA) RNA: GGAUACAUAGGAACCUCCUCACAAAGGAUUCUAUGGACUGUCGAUGCAGGGAGUUCACGUCUCCCUGCAUCGGCUAUUUU", "values": [{"measurement": "Kd", "setting": "FinO [3]", "result": "200 ± 73", "unit": "nM"}, {"measurement": "Kd", "setting": "[5]", "result": "6.2 ± 3.1", "unit": "nM"}]}, {"binder": "cspE81-FinP-stem (structured_RNA) RNA: GGCCCUUCUGCUGCAAACGUAAUCGCUCUGUAAGAUACGUCAGCAAGAAUUCAACAGUCGCUUAAUCAGCGGCGAUUUU", "values": [{"measurement": "Kd", "setting": "ProQ [6]", "result": "130 ± 34", "unit": "nM"}, {"measurement": "Kd", "setting": "FinO [3]; terminator hairpin", "result": "56 ± 16", "unit": "nM"}, {"measurement": "Kd", "setting": "ProQ [4]; terminator hairpin", "result": "130 ± 34", "unit": "nM"}]}, {"binder": "cspE81-FinP (structured_RNA) RNA: GGCCCUUCUGCUGCAAACGUAAUCGCUCUGUAAGAUACGUCAGCAAGAAUUCAACACCCGCUUAAUCAGCGGGGAUUUU", "values": [{"measurement": "Kd", "setting": "FinO [3]; terminator hairpin", "result": "88 ± 39", "unit": "nM"}, {"measurement": "Kd", "setting": "[5]; terminator hairpin", "result": "4.9 ± 0.32", "unit": "nM"}]}, {"binder": "malM-FinP (structured_RNA) RNA: GCUUUAUCAGCAGUGUAAAAGGCAAGGGGUAAUUACGCCCCACAGUGCUGAUUUUGCAACAACAGGUGCGUCUCCUGGCGCACCGAUUUU", "values": [{"measurement": "Kd", "setting": "FinO [3]; terminator hairpin", "result": "86 ± 17", "unit": "nM"}, {"measurement": "Kd", "setting": "ProQ [4]; terminator hairpin", "result": "78 ± 22", "unit": "nM"}]}, {"binder": "FinP-malM (structured_RNA) RNA: GGAUACAUAGGAACCUCCUCACAAAGGAUUCUAUGGACUGUCGAUGCAGGGAGUUCACGUCUCCCUGCAUCGGCUUUUUUU", "values": [{"measurement": "Kd", "setting": "FinO [7]", "result": "280 ± 110", "unit": "nM"}, {"measurement": "Kd", "setting": "ProQ [4]; terminator hairpin", "result": "25 ± 6.7", "unit": "nM"}, {"measurement": "Kd", "setting": "[5]; terminator hairpin", "result": "5.3 ± 1.5", "unit": "nM"}]}, {"binder": "cspE81-3' (structured_RNA) RNA: GGCCCUUCUGCUGCAAACGUAAUCGCUCUGUAAGAUACGUCAGCAAGAAUUCAAAACCCGCUUAAUCAGCGGGUUUUUUUU", "values": [{"measurement": "Kd", "setting": "ProQ [4]; [9]", "result": "37 ± 7.1", "unit": "nM"}, {"measurement": "Kd", "setting": "[5]; [9]", "result": "2.4 ± 0.27", "unit": "nM"}]}, {"binder": "RepX-malM (structured_RNA) RNA: GCAUUGAUUGCCUCCUUUGCAGGCAGUUGGUGGACUGGCGCUGGCGGGGUCACUACCCCCGCCCUGCGCCUUUUUUU", "values": [{"measurement": "Kd", "setting": "FinO [3]; terminator hairpin", "result": "150 ± 67", "unit": "nM"}, {"measurement": "Kd", "setting": "[5]; terminator hairpin", "result": "3.2 ± 1.6", "unit": "nM"}]}, {"binder": "malM-3' (structured_RNA) RNA: GCUUUAUCAGCAGUGUAAAAGGCAAGGGGUAAUUACGCCCCACAGUGCUGAUUUUGCAACAACUGGUGCGUCUCCUGGCGCACCUUUUUUU", "values": [{"measurement": "Kd", "setting": "ProQ [4]; terminator hairpin, U7 tail", "result": "27 ± 12", "unit": "nM"}, {"measurement": "Kd", "setting": "[5]; terminator hairpin, U7 tail", "result": "5.8 ± 0.7", "unit": "nM"}]}, {"binder": "malM-3' U64A;U85G (structured_RNA) RNA: GCUUUAUCAGCAGUGUAAAAGGCAAGGGGUAAUUACGCCCCACAGUGCUGAUUUUGCAACAACAGGUGCGUCUCCUGGCGCACCGUUUUUU", "values": [{"measurement": "Kd", "setting": "FinO [3]", "result": "150 ± 40", "unit": "nM"}, {"measurement": "Kd", "setting": "[5]", "result": "1.9 ± 0.59", "unit": "nM"}]}, {"binder": "malM-3' U64A;U85G;U86A (structured_RNA) RNA: GCUUUAUCAGCAGUGUAAAAGGCAAGGGGUAAUUACGCCCCACAGUGCUGAUUUUGCAACAACAGGUGCGUCUCCUGGCGCACCGAUUUUU", "values": [{"measurement": "Kd", "setting": "FinO [3]", "result": "130 ± 18", "unit": "nM"}, {"measurement": "Kd", "setting": "ProQ [4]", "result": "160 ± 30", "unit": "nM"}]}]}
